In data set [1] the test system is bone marrow endothelial cells. Description: Immunoblot of YAP, AKT and ERK phosphorylation after SLIT3 treatment. It counts as cell-based, mouse. The method, then: Western blot analysis was performed according to a previously described standard protocol. (Greenblatt et al. 2016) Primary antibodies were specific for SLIT3 (1:500; R&D Systems, AF3629), ROBO1 (1:500; Abeam, ab7279), ROBO2 (1:1000; Abcam, ab75014), YAP (1:1,000; Cell Signaling, 4912), p-YAP (1:1,000; Cell signaling, 4911), AKT (1:1,000; Cell Signaling, 4691), p-AKT (1:1,000; Cell Signaling, 4060), ERK (1:1,000; Cell Signaling, 9102), p-ERK (1:1,000; Cell Signaling, 9101) and beta-actin (1:5,000, sc-47778, Santa Cruz) or Hsp90 (1:1000; sc-13119, Santa Cruz). Secondary anti-mouse/rabbit HRP-conjugated antibodies were subsequently applied.

Data set [2] has as its system CD31^hiEMCN^hi endothelium. Put plainly: Flow cytometry of skeletal CD31hiEMCNhi endothelium in femurs after IV injection. Type of data set: in vivo, mouse. Particulars: 8-week-old B6 mice, twice weekly IV 1 mg/kg, 21 days, femur; 1 mg/kg. The procedure: Femur and tibia were dissected from mutant mice and control groups after removing surrounding connective tissues. The metaphysis region and diaphysis regions of bone was crushed in Hanks Balanced Salt Solution (Life Technologies) containing 10 mM HOPES (pH 7.2) (CellGro) and enzymatically digested with 2.5 mg/mL Collagenase A (Roche) and 1 unit/mL Dispase II (Roche) for 15 minutes at 37° C. under gentle agitation. The resulting cell suspensions were filtered (40 μm), washed using PBS (pH 7.2) containing 0.5% BSA (Fraction V) and 2 mM EDTA. After washing, equal numbers of cells per mouse were blocked with Purified Rat Anti-Mouse CD16/CD32 (BD Biosciences) for 30 min on ice, then stained with APC-conjugated EMCN antibody (ebioscience 50-5851-80), PE-conjugated CD31 (ebioscience 12-0311-81). FITC-conjugated CD45 (Tonbo 35-0451), APC/Cy7-conjugated Ter119 (Biolegend 116223) and PerCP-Cy5.5-conjugated CD146 (BD Biosciences 562231) for 45 min on ice. After washing, cells were resuspended in PBS (pH 7.2) with 2 mM EDTA and 1 μg/mL 4-6,Diamidino-2-Phenylindole (DAPI) (live/dead exclusion) for analysis on an LSRII flow cytometer system (BD Biosciences) cytometer and analyzed using FlowJo software (TreeStar). Cell sorting was performed with a FACS Aria II SORP cell sorter (Becton Dickinson) at Weill Cornell Medical College, with exclusion of DAPI^+ cells and doublets. […]
(A flow cytometer gives signals particle by particle.)

Data set [3] concerns fracture site. Description: Femoral fracture model, local delivery of SLIT3 into the fracture site. Type of data set: in vivo, mouse. The procedure:
(§1) Micro-CT (μCT) analysis was conducted on a Scanco Medical μCT 35 system at the Citigroup Biomedical Imaging Core using the previously described parameters. (Shim et al. 2013). μCT analysis was performed by an investigator blinded to the genotypes of the animals under analysis.
For whole-mount immunostaining, retinas were collected from adult mice after systemic or local SLIT3 administration in bone fracture models.
Bone fracture was done following previously described protocols with modifications (Bradaschia-Correa et al. 2017). In brief, after anesthesia and surgical site sterilization, an incision above the right anterolateral femur was made. The femur and patella were then exposed, and a 27-gauge syringe needle was inserted parallel with the long axis of the femur through the patellar groove into the marrow cavity. The needle was then removed, and a single cut was made in the middle of the femoral diaphysis using a dremel saw with a diamond thin cutting wheel (VWR, Cat #100230-724). A blunt 25-gauge needle was then inserted into the marrow space through the hole made in the patella to stabilize the fracture. The needle was then trimmed to avoid it from projecting into the patella-femoral joint space. Muscle was then placed over the osteotomy site and stitched with absorbable sutures prior to closing the skin with wound clips.
Alternatively, the gelatin sponge was manually soaked with SLITS (300 ug/ml in PBS) or vehicle for 1 hour on ice and immediately placed to the surgical fracture area. All animals were euthanized by CO2 at time points indicated.
All bones were tested to failure using four-point bending on a precision electromagnetic-based load frame (EnduraTEC ELF 3200, Bose Corporation, Minnetonka, MC). Femurs were placed with the posterior surface on the lower supports, spaced 9.9 mm apart. The upper supports were spaced 3.3 ram. Load was applied at a rate of 0.1 mm/s until failure occurred. The failure load (N) and bending stiffness […] within the elastic range were calculated from the force-displacement curves and the four-point dimensions.

Data set [4] relates to murine ovariectomy (OVX) model of postmenopausal osteoporosis. Description: Ovariectomy (OVX) induced bone loss, prophylactic model. Type of data set: in vivo, mouse. The procedure:
as §1
For histomorphometry, mice were injected with calcein (25 mg/kg, Sigma), and undecalcified sections of the lumbar vertebrae were stained using von Kossa and TRAP as described by Fukuda et al. (2013). Static and dynamic histomorphometric analysis was performed with using the Osteomeasure Analysis System (Osteometrics) following standard nomenclature as described (Dempster et al. 2013). Bone volume/total volume (BV/TV), bone formation rate/bone surface (BFR/BS, μm^3 […] yr^−1), mineral apposition rate (MM, um Day^−1), osteoblast surface/bone surface (Ob.S/BS, %) and osteoclast number/bone perimeter (No. OC/Bpm) were analyzed.
For the prophylactic model, 12-week-old female mice (JAX) were anesthetized and bilaterally ovariectomized or sham operated. Ovariectomized mice were given twice weekly intravenous injections of 1 mg per kg body weight of SLITS or vehicle or daily subcutaneous (sc) injections of 80 ug/kg PTH (1-34) for 6 weeks starting 2 weeks after ovariectomy. […] All mice were then randomly assigned to one of four groups: Sham, OVX+vehicle, OVX+SLITS and OVX+PTH. Three days after the last injection, all of the mice were euthanized and subjected to bone analysis as described earlier.

[5] abbreviates: treatment initiated two weeks after OVX.

The values below come from patent publication US20200397860A1, “SLIT AND BONE GROWTH MODULATION” (Cornell University, priority 2018, published 2020).

Entries after “also recorded” stand apart in the source; their conditions may differ.

B1: SLIT3: SLIT3 recombinant protein (R&D); secreted ligand of ROBO receptors (protein, UniProt O75094 34-1523, looked up)
Slit homolog 3 protein: CPTKCTCSAASVDCHGLGLRAVPRGIPRNAERLDLDRNNITRITKMDFAGLKNLRVLHLEDNQVSVIERGAFQDLKQLERLRLNKNKLQVLPELLFQSTPKLTRLDLSENQIQGIPRKAFRGITDVKNLQLDNNHISCIEDGAFRALRDLEILTLNNNNISRILVTSFNHMPKIRTLRLHSNHLYCDCHLAWLSDWLRQRRTVGQFTLCMAPVHLRGFNVADVQKKEYVCPAPHSEPPSCNANSISCPSPCTCSNNIVDCRGKGLMEIPANLPEGIVEIRLEQNSIKAIPAGAFTQYKKLKRIDISKNQISDIAPDAFQGLKSLTSLVLYGNKITEIVKGLFDGLVSLQLLLLNANKINCLRVNTFQDLQNLNLLSLYDNKLQTISKGLFAPLQSIQTLHLAQNPFVCDCHLKWLADYLQDNPIETSGARCSSPRRLANKRISQIKSKKFRCSGSEDYRSRFSSECFMDLVCPEKCRCEGTIVDCSNQKLVRIPSHLPEYVTDLRLNDNEVSVLEATGIFKKLPNLRKINLSNNKIKEVREGAFDGAASVQELMLTGNQLETVHGRVFRGLSGLKTLMLRSNLIGCVSNDTFAGLSSVRLLSLYDNRITTITPGAFTTLVSLSTINLLSNPFNCNCHLAWLGKWLRKRRIVSGNPRCQKPFFLKEIPIQDVAIQDFTCDGNEESSCQLSPRCPEQCTCMETVVRCSNKGLRALPRGMPKDVTELYLEGNHLTAVPRELSALRHLTLIDLSNNSISMLTNYTFSNMSHLSTLILSYNRLRCIPVHAFNGLRSLRVLTLHGNDISSVPEGSFNDLTSLSHLALGTNPLHCDCSLRWLSEWVKAGYKEPGIARCSSPEPMADRLLLTTPTHRFQCKGPVDINIVAKCNACLSSPCKNNGTCTQDPVELYRCACPYSYKGKDCTVPINTCIQNPCQHGGTCHLSDSHKDGFSCSCPLGFEGQRCEINPDDCEDNDCENNATCVDGINNYVCICPPNYTGELCDEVIDHCVPELNLCQHEAKCIPLDKGFSCECVPGYSGKLCETDNDDCVAHKCRHGAQCVDTINGYTCTCPQGFSGPFCEHPPPMVLLQTSPCDQYECQNGAQCIVVQQEPTCRCPPGFAGPRCEKLITVNFVGKDSYVELASAKVRPQANISLQVATDKDNGILLYKGDNDPLALELYQGHVRLVYDSLSSPPTTVYSVETVNDGQFHSVELVTLNQTLNLVVDKGTPKSLGKLQKQPAVGINSPLYLGGIPTSTGLSALRQGTDRPLGGFHGCIHEVRINNELQDFKALPPQSLGVSPGCKSCTVCKHGLCRSVEKDSVVCECRPGWTGPLCDQEARDPCLGHRCHHGKCVATGTSYMCKCAEGYGGDLCDNKNDSANACSAFKCHHGQCHISDQGEPYCLCQPGFSGEHCQQENPCLGQVVREVIRRQKGYASCATASKVPIMECRGGCGPQCCQPTRSKRRKYVFQCTDGSSFVEEVERHLECGCLACS
Take B1: the “phosphorylation of YAP in response to ligand after Robo1 knockdown” value in data set [1] (EPOCs transduced with Robo1 shRNA) is listed as “impaired their response”. Besides, in data set [1] (mouse EPOCs after serum starvation), the “signaling pathways downstream of SLIT3 (YAP, AKT, ERK phosphorylation)” value is “induces activation of Hippo and ERK MAPK pathway signaling”. In addition, in data set [2], the “levels of skeletal CD31hiEMCNhi endothelium in vivo” value is reported as “increased levels; also recorded: induces production”. In addition, in data set [3] (implanted at fracture site), the “fracture healing, local delivery” value is recorded as “enhances bone-fracture healing”. Further, the “non-skeletal vascular abundance or morphology” value in data set [3] (local delivery) is recorded as “did not impact”. Further, in data set [3] (mouse, in vivo), the brain ultrastructure result is reported as “did not impact”. Moreover, the “OVX-induced bone loss (micro-CT)” value in data set [4] (IV twice weekly initiated two weeks after OVX) was “significantly countered OVX-induced bone loss; also recorded: comparable to the effects of PTH treatment; also recorded: preventive effects”. Moreover, in data set [4] (L3 vertebrae), the “endosteal CD31hiEMCNhi endothelium after OVX” value was “reversed the attenuation” and the endosteal bone formation entry is recorded as “rescued”. The “amounts of CD31hiEMCNhi vasculature in vivo” value in data set [4] (treatment for six weeks in vivo) is reported as “increase amounts”. For the same molecule, in data set [4] (setting [5]), the cortical thickness entry is on record as “increased” and the “trabecular BV/TV” value was “increased”.
